# Results: patent US20250235479A1 (INNOBATION BIO, published 2025)
# T1: CD22 expressed on cells (U2932, NALM6, K562/CD22+ cells) (UniProt P20273 20-847, limits assumed)
# T1 construct: whole, on cells; the cell lines are human lines; also called cells expressing CD22
# T1 sequence (looked up): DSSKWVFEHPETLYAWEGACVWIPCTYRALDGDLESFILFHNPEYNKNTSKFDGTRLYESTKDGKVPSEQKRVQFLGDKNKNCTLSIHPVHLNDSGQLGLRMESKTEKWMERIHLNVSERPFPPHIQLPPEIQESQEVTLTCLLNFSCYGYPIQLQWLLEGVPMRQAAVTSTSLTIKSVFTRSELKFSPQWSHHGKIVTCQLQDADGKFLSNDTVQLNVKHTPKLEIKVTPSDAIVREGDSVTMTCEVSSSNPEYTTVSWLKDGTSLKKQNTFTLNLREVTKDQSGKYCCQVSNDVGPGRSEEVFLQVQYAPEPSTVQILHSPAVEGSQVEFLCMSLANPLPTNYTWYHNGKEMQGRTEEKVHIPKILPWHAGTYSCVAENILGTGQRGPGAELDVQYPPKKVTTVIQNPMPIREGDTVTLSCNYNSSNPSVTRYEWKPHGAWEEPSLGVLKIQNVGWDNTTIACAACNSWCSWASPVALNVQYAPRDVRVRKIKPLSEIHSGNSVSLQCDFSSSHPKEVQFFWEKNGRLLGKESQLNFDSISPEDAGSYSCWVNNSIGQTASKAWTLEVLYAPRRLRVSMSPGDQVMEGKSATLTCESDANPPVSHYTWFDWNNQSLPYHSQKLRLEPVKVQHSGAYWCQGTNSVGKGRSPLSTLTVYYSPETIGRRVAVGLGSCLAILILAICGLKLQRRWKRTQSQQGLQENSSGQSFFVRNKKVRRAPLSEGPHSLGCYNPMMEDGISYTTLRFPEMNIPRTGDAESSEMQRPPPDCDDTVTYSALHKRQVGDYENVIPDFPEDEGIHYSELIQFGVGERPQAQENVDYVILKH
# T2: CD22 protein (ACRObiosystems Inc., cat #CD2-H52H8, USA) (UniProt P20273 20-687)
# T2 construct: Named as the immunogen
# T2 sequence (looked up): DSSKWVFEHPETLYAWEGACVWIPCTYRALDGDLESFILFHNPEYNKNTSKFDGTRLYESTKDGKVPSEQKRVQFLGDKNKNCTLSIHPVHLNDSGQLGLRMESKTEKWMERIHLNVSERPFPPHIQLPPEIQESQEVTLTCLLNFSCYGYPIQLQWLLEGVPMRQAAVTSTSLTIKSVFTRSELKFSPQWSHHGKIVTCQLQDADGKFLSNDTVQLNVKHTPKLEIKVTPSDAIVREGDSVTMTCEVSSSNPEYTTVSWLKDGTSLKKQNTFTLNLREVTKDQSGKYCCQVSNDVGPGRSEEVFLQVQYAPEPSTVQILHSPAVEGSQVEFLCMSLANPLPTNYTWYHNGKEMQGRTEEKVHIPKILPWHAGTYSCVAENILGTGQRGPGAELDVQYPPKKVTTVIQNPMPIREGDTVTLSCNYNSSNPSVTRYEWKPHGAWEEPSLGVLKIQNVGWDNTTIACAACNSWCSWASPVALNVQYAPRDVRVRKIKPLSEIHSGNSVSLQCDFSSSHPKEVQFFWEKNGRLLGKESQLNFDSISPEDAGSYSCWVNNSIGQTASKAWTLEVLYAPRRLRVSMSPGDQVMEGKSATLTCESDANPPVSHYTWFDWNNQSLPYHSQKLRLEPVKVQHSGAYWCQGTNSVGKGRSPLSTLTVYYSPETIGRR
# Assays:
# [1] = molecular target: T1, CD22 expressed on cells (U2932, NALM6, …); test: flow cytometry on U2932 cells expressing CD22
# [2] = molecular target: T2, CD22 protein (ACRObiosystems Inc., cat …); test: ELISA screening of hybridoma clones
# Excerpt: A limiting dilution method was used to select a hybridoma that produces an antibody binding to CD22 from among the proliferated hybridomas. First, the number of cells was reduced to 1 cell or less per […], and then it was confirmed by ELISA whether an antibody obtained from a clone proliferated from one cell bound to CD22, and a clone binding to CD22 was selected. The above process was repeated three times to select hybridomas that produced the antibody binding to CD22. The antibody binding to CD22 was obtained in this manner.
binding result [1],binding result [2],Binder
binds,,"humanized anti-CD22 antibody 2G1(V4) (antibody, V domains shown, CDR-grafted humanized form of 2G1) VH: EVQLQESGPGLVKPSQTLSLTCTVSGFSLTSYDISWIRQPPGKGLEWLGVIWTGGGTNYNSALKSRVTISKDNSKSQVSLKLSSVTAADTAVYYCVPHYYGYAMDYWGQGTTVTVSS VL: EIVLTQSPATLSLSPGERATLSCRASQDINKYIAWYQQKPGQAPRLLIHYTSTRQTGIPARFSGSGSGRDYTLTISSLEPEDFAVYYCLQYDNLLTFGGGTKLEIK"
binds,,"humanized anti-CD22 antibody 2G1(V12) (antibody, V domains shown, CDR-grafted humanized form of 2G1) VH: EVQLKESGPVLVKPTETLTLTCTVSGFSLTSYDISWIRQPPGKALEWLGVIWTGGGTNYNSALKSRLTISKDNSKSQVVLTMTNMDPVDTATYYCVPHYYGYAMDYWGQGTTVTVSS VL: EIVLTQSPATLSLSPGERATLSCRASQDINKYIAWYQQKPGQAPRLLIHYTSTRQTGIPARFSGSGSGRDYTLTISSLEPEDFAVYYCLQYDNLLTFGGGTKLEIK"
binds,binds,"2G1 antibody (mouse anti-CD22 antibody) (antibody, V domains shown, Obtained from a mouse hybridoma; also called mouse 2G1 antibody) VH: EVQLQESGPGLVAPSQSLSITCTVSGFSLTSYDISWIRQPPGKGLEWLGVIWTGGGTNYNSAFMSRLSISKDNSKSQVFLKMNSLQTDDTAIYYCVPHYYGYAMDYWGQGTSVTVSS VL: DIVLTQSPSSLSASLGGKVTITCKASQDINKYIAWYQHKPGKGPRLLIHYTSTLQPGIPSRFSGSGSGRDYSFSISNLEPEDIATYYCLQYDNLLTFGAGTKLELK"
